Results: US20250049914A1, “STEROID ACID-PEPTIDE BASED INTRACELLULAR CARGO DELIVERY” (DEFENCE THERAPEUTICS INC., priority 2021, published 2025)
“Also recorded” adds a separate entry of the source. Where a SMILES comes first, the peptide text is derived from it. The star is where a group is joined. Cholyl = C[C@H](CCC(=O)*)[C@H]1CC[C@H]2[C@@H]3[C@H](O)C[C@@H]4C[C@H](O)CC[C@]4(C)[C@H]3C[C@H](O)[C@]12C

What was measured:
[1] = system: EL4 cells; test: Cytochrome C cytosolic delivery, cell death (annexin V binding) by flow cytometry; format: cell-based
Method: Cytochrome C is a protein that is normally entrapped in the mitochondria but its release into the cytosol in known to induce cell death. An experiment was performed in which EL4 cells were incubated with recombinant cytochrome C either alone (FIG. 8A) or mixed with CA-SV40 NLS (47 μM) (FIG. 8B). Successful delivery of cytochrome C to the cytosol in its active form was assessed by measuring cell death (annexin V binding) via flow cytometry.

[2] = system: DC2.4 cells; test: eGFP-Gal3 assessment of damaged endosomes by microscopy; format: cell-based, murine; conditions: 0.1 mg/mL cargo, 3 h, 37° C.
Method: For this assay, 15×10^3 DC2.4 cells were seeded on a sterile cover slide in a 24-well plate. Two days following transfection of DC2.4 cells with the eGFP-hGal3 mammalian expression vector, 0.1 mg/mL of cargo was added to cells then incubated for 3 h at 37° C. The cells were then washed twice to remove excess protein prior to being mounted on a slide. The slides were viewed by fluorescent microscopy (Nikon, Eclipse™ Ti2-U) and the results analyzed using the ImageJ™ software.
A GFP-galectin-3 (GFP-Gal3) based detection system was utilized to explore the effect on endosomal membranes following intracellular delivery of steroid acid-peptide-conjugated cargoes. […] When expressed under normal conditions, Gal3 is evenly distributed across the cytosol but disruption of endosomal membranes allows Gal3 to access and bind luminal glycoproteins. We thus transiently transfected the murine dendritic cell line DC2.4 with a construct expressing Gal3 fused to enhanced green fluorescent protein (eGFP-Gal3). Two days later, DC2.4 cells were incubated with 0.1 mg/mL of either unconjugated OVA cargo or [CA-SV40]-OVA conjugated cargo for 3 h at 37° C. and the cells were observed by fluorescent microscopy.

[3] = Intrinsic tryptophan fluorescence (ITF) after thermal stress; format: physicochemical; conditions: 80° C., ten minutes, 0.8 mg/mL in PBS
Method: An Applied Photophysics (Leatherhead, Surrey, UK) Chirascan™ Q100 circular dichroism (CD) spectrometer was used for intrinsic tryptophan fluorescence (ITF) analysis and a VWR digital heatblock (Radnor, PA) was used for dry block temperature incubations. The Chirascan™ Q100 autosampler rack cooling system was used for all 4° C. incubations. Data was analyzed using MATLAB™ software (Natick, MA). Briefly, samples were removed from storage at −20° C. and allowed to equilibrate to room temperature. Samples were then diluted to 0.8 mg/mL in PBS from stock concentrations in the range of 4 to 5 mg/mL. Diluted samples were then analyzed for ITF without exposure to thermal stress (Native) or after ten minutes of thermal stress by dry block incubation. An aliquot of each diluted sample was incubated at 4° C., a second aliquot was incubated at 37° C., while a third aliquot was incubated at 80° C. BSA, diluted to 0.8 mg/mL, was included with the samples under each of the thermal conditions described above. All samples were re-equilibrated to room temperature after incubation. ITF Analysis was performed in […] by excitation at 280 nm with an emission scan range of 200-600 nm with a bandwidth of 1.0 nm, a Time-per point of 1 s, and a Step of 0.5. The triplicate spectra were blank subtracted, averaged, and converted from units of mdeg to relative fluorescence intensity using MATLAB software. […]

[4] = system: WT MSCs; test: Antigen cross-presentation assay on wild-type MSCs with B3Z cells; format: cell-based, mouse; conditions: WT MSCs pulsed with OVA with or without conjugate
Method: In order to generate Bone marrow (BM)-derived mouse MSCs, the femurs of 6-8-week-old female Balb/c or C57BL/6 mice were isolated and flushed with Alpha Modification of Eagle's Medium (AMEM) supplemented with 10% FBS and 50 U/mL Penicillin-Streptomycin in a 10 cm cell culture dish, then incubated at 37° C. Two days later, non-adherent cells were removed and the media replaced every 3 to 4 days until plastic-adherent cells reached 80% confluency. The generated cells were detached using 0.05% trypsin and expanded until a uniform MSC population was obtained. The generated MSCs were validated for their innate phenotype by flow-cytometry for the expression of CD44, CD45, CD73, and CD90. The cells were frozen in liquid nitrogen until use.
To assess cross-presentation assay, 25×10^3 cells MSCs were seeded per well in 24-well plate then pulsed with steroid acid peptide-conjugated for 6 h admixed with OVA. At the end of the pulsing period, the cells were washed to remove excess antigen then 5×10^4 B3Z cells. The cells were incubated for 17-19 hours prior to their lysis and incubation for another 4-6 hours at 37° C. with a CPRG solution. The optical density signal was detected at wavelength 570 using a SynergyH1™ microplate reader (Biotek, Winooski, VT, United States).
To determine whether a similar effect occurs in wild type (WT) (i.e., non-engineered) MSCs, BM-derived MSCs (Example 1) were used instead in the same cross presentation assay with B3Z responder cells.

[5] = system: primary bone marrow-derived DCs; test: DQ OVA intracellular degradation/processing, flow cytometry; format: cell-based, mouse; conditions: primary BMDCs, six hours
Method: Mouse bone marrow derived DCs (BMDCs) were generated by flushing the whole marrow from mouse femurs using RPMI™ 1640 supplemented with 10% fetal bovine serum (FBS), 50 U/mL Penicillin-Streptomycin, 2 mM L-glutamine, 10 mM HEPES, 1% MEM Non-essential Amino Acids, 1 mM Sodium Pyruvate, 0.5 mM beta-mercaptoethanol. Following red blood cell lysis, cells were then cultured in media supplemented with 50 ng/mL murine recombinant GM-CSF. The media was changed on days 2, 4, 6 and 8. On day 9, the media was replaced to include recombinant murine GM-CSF and LPS from Escherichia coli 0111 (1 ng/mL) to stimulate DC maturation. Mature DCs were assessed by flow cytometry for their surface expression of CD3, CD19, NK1.1, CD11c, CD80, CD86, and I-A^b. To evaluate OVA degradation/processing, cells were incubated with 10 µg/mL DQ™ OVA (with or without steroid acid-peptide modification) at 37° C. 30 minutes later, cells were washed, and regular media was added. […] Fluorescence was monitored by analyzing the cells by flow cytometry. […] Briefly, while a strong fluorescence quenching effect is observed when the DQ™ OVA substrate remains intact, hydrolysis of DQ™ OVA into single dye-labeled peptides by proteases relieves this quenching, thereby producing brightly fluorescent products. […] Cells were then collected and fluorescence was monitored by flow cytometry.

## cytochrome C
[1]; recombinant cytochrome C alone
  cell death, cytochrome C alone: did not trigger cell death

## CC(C)[C@H](NC(=O)[C@H](CCCCN)NC(=O)[C@H](CCCNC(=N)N)NC(=O)[C@H](CCCCN)NC(=O)[C@H](CCCCN)NC(=O)[C@H](CCCCN)NC(=O)[C@@H]1CCCN1C(=O)CNC(=O)[C@H](Cc1ccc(O)cc1)NC(=O)CNC(=O)[C@H](CS)NC(=O)CC[C@@H](C)[C@H]1CC[C@H]2[C@@H]3[C@H](O)C[C@@H]4C[C@H](O)CC[C@]4(C)[C@H]3C[C@H](O)[C@]12C)C(=O)NCC(=O)NCC(=O)O [CA-SV40] (Cholyl-CGYGPKKKRKVGG-OH)
[1]; CA-SV40 NLS conjugate alone
  cell death, conjugate alone: 19%

B1: OVA: albumin from chicken egg white, unconjugated cargo/antigen (protein, UniProt P01012 2-386, looked up)
Ovalbumin: GSIGAASMEFCFDVFKELKVHHANENIFYCPIAIMSALAMVYLGAKDSTRTQINKVVRFDKLPGFGDSIEAQCGTSVNVHSSLRDILNQITKPNDVYSFSLASRLYAEERYPILPEYLQCVKELYRGGLEPINFQTAADQARELINSWVESQTNGIIRNVLQPSSVDSQTAMVLVNAIVFKGLWEKAFKDEDTQAMPFRVTEQESKPVQMMYQIGLFRVASMASEKMKILELPFASGTMSMLVLLPDEVSGLEQLESIINFEKLTEWTSSNVMEERKIKVYLPRMKMEEKYNLTSVLMAMGITDVFSSSANLSGISSAESLKISQAVHAAHAEINEAGREVVGSAEAGVDAASVSEEFRADHPFLFCIKHIATNAVLFFGRCVSP
[2]
  eGFP-Gal3 marker pattern (endosomal membrane disruption): remained cytosolic; also recorded: diffuse cytosolic pattern
[3]
  ITF spectral change after thermal stress (unfolding): complete denaturation
[4]
  OVA cross presentation by WT MSCs (B3Z): poorly cross presented

B2: 50×-cOVA: OVA conjugated with a 50× molar excess of CA-SV40 NLS, about eight moieties per OVA (conjugate, UniProt P01012 2-386, looked up)
Ovalbumin: GSIGAASMEFCFDVFKELKVHHANENIFYCPIAIMSALAMVYLGAKDSTRTQINKVVRFDKLPGFGDSIEAQCGTSVNVHSSLRDILNQITKPNDVYSFSLASRLYAEERYPILPEYLQCVKELYRGGLEPINFQTAADQARELINSWVESQTNGIIRNVLQPSSVDSQTAMVLVNAIVFKGLWEKAFKDEDTQAMPFRVTEQESKPVQMMYQIGLFRVASMASEKMKILELPFASGTMSMLVLLPDEVSGLEQLESIINFEKLTEWTSSNVMEERKIKVYLPRMKMEEKYNLTSVLMAMGITDVFSSSANLSGISSAESLKISQAVHAAHAEINEAGREVVGSAEAGVDAASVSEEFRADHPFLFCIKHIATNAVLFFGRCVSP
modifications: about eight CA-SV40 NLS conjugates
notes: OVA conjugated with a 50× molar excess of CA-SV40 NLS, about eight moieties per OVA
[3]
  ITF spectral change after thermal stress (unfolding): partial reduction in peak intensity

B3: [CA-SV40]-OVA: OVA covalently conjugated to CA-SV40 NLS moieties via SM(PEG)4 cross-linker (conjugate, UniProt P01012 2-386, looked up)
Ovalbumin: GSIGAASMEFCFDVFKELKVHHANENIFYCPIAIMSALAMVYLGAKDSTRTQINKVVRFDKLPGFGDSIEAQCGTSVNVHSSLRDILNQITKPNDVYSFSLASRLYAEERYPILPEYLQCVKELYRGGLEPINFQTAADQARELINSWVESQTNGIIRNVLQPSSVDSQTAMVLVNAIVFKGLWEKAFKDEDTQAMPFRVTEQESKPVQMMYQIGLFRVASMASEKMKILELPFASGTMSMLVLLPDEVSGLEQLESIINFEKLTEWTSSNVMEERKIKVYLPRMKMEEKYNLTSVLMAMGITDVFSSSANLSGISSAESLKISQAVHAAHAEINEAGREVVGSAEAGVDAASVSEEFRADHPFLFCIKHIATNAVLFFGRCVSP
modifications: CA-SV40 NLS peptides via SM(PEG)4
notes: OVA covalently conjugated to CA-SV40 NLS moieties via SM(PEG)4 cross-linker
[2]
  eGFP-Gal3 marker pattern (endosomal membrane disruption): became punctate; also recorded: punctate pattern

B4: [CA-SV40]-DQ™ OVA: DQ OVA conjugated with a molar excess of CA-SV40 NLS steroid acid-peptide moieties (conjugate, UniProt P01012 2-386, looked up)
Ovalbumin: GSIGAASMEFCFDVFKELKVHHANENIFYCPIAIMSALAMVYLGAKDSTRTQINKVVRFDKLPGFGDSIEAQCGTSVNVHSSLRDILNQITKPNDVYSFSLASRLYAEERYPILPEYLQCVKELYRGGLEPINFQTAADQARELINSWVESQTNGIIRNVLQPSSVDSQTAMVLVNAIVFKGLWEKAFKDEDTQAMPFRVTEQESKPVQMMYQIGLFRVASMASEKMKILELPFASGTMSMLVLLPDEVSGLEQLESIINFEKLTEWTSSNVMEERKIKVYLPRMKMEEKYNLTSVLMAMGITDVFSSSANLSGISSAESLKISQAVHAAHAEINEAGREVVGSAEAGVDAASVSEEFRADHPFLFCIKHIATNAVLFFGRCVSP
modifications: DQ fluorophore label; CA-SV40 NLS conjugates
notes: DQ OVA conjugated with a molar excess of CA-SV40 NLS steroid acid-peptide moieties
[5]
  DQ OVA fluorescence (intracellular degradation/processing): sharp increase

B5: DQ™ OVA: fluorogenic substrate DQ ovalbumin (protein, UniProt P01012 2-386, looked up)
Ovalbumin: GSIGAASMEFCFDVFKELKVHHANENIFYCPIAIMSALAMVYLGAKDSTRTQINKVVRFDKLPGFGDSIEAQCGTSVNVHSSLRDILNQITKPNDVYSFSLASRLYAEERYPILPEYLQCVKELYRGGLEPINFQTAADQARELINSWVESQTNGIIRNVLQPSSVDSQTAMVLVNAIVFKGLWEKAFKDEDTQAMPFRVTEQESKPVQMMYQIGLFRVASMASEKMKILELPFASGTMSMLVLLPDEVSGLEQLESIINFEKLTEWTSSNVMEERKIKVYLPRMKMEEKYNLTSVLMAMGITDVFSSSANLSGISSAESLKISQAVHAAHAEINEAGREVVGSAEAGVDAASVSEEFRADHPFLFCIKHIATNAVLFFGRCVSP
modifications: DQ fluorophore label
notes: fluorogenic substrate DQ ovalbumin
[5]
  DQ OVA fluorescence (intracellular degradation/processing): not observed
